Measured values from patent US6960658B1, “Maspin transcriptional regulatory sequences and uses thereof” (Dana-Farber Cancer Institute, Inc., priority 1996, dated 2005).

Experiments:
[1] = test system: maspin HRE element (pBLAp1/HRE reporter) in CF3 and LNCaP cells; test: CAT assay of pBLAp1/HRE construct with or without androgen (R1881) treatment; assay type: cell-based, human; details: 50 nM R1881 vs vehicle added after transfection
Method: For construction of pBLAp1/HRE, pairs of OL8 and OL9 oligos were annealed as described above. The annealed product was phosphorylated by T4 polynucleotide kinase, and ligated to the BamHI site of pBLAp1 (pBLCAT2 containing three copies of Ap1) to generate pBLAp1/HRE (FIG. 12).
Cells were plated at 1 ×106/p100 and grown to about 75% confluence. SNA was transfected by the method of modified DEAE-Dextran (Promega, Inc., Madison, Wis.). The amounts of DNAs used were: 10 μg reporter plasmid, except for PCMVCAT in which only 2 μg of DNA was used. 1 μg of pCMVβgal was used as an internal control for transfection efficiency. For the androgen treatment, 50 nM methyltrienolone.(R1881, from Du Pont-New England Nuclear, Inc., Boston, Mass.) or vehicle was added to the cultures after transfection. […] The β-galactosidase activity in the extracts was calculated as described by Swisshelm et al. (Cell Growth Differ. 5:133, 1994). Twenty units of extracts (calculated by β-galactosidase activity) were used for each CAT assay except for transfection with pCMVCAT positive control in which only 10 units of extracts were used because of high activity. […] Quantitation of acetylated […] and nonacetylated chloramphenicol was performed by cutting out the appropriate regions of the silica gel TLC plate and counting in BioFluor (DuPont, Wilmington, Del.). […]

tumor cells [2] = details: Sager et al. 1995; cited from earlier work
tumor cells [3] = details: expressed in tumor transfectants or added as recombinant maspin; Sheng et al. 1994; cited from earlier work

| Molecule | effect of R1881 treatment on HRE-mediated inhibition of promoter (CAT) activity [1] | mobility of tumor cells (tumor cells [2]) | invasion in a Boyden chamber assay (tumor cells [3]) |
| --- | --- | --- | --- |
| C[C@]1(O)CC[C@H]2[C@@H]3CCC4=CC(=O)CCC4=C3C=C[C@@]21C [R1881, methyltrienolone] | Little difference in inhibition | – | – |
| Maspin: a serpin expressed in normal human mammary epithelial cells (protein, UniProt P36952 1-375, looked up) Serpin B5: MDALQLANSAFAVDLFKQLCEKEPLGNVLFSPICLSTSLSLAQVGAKGDTANEIGQVLHFENVKDVPFGFQTVTSDVNKLSSFYSLKLIKRLYVDKSLNLSTEFISSTKRPYAKELETVDFKDKLEETKGQINNSIKDLTDGHFENILADNSVNDQTKILVVNAAYFVGKWMKKFSESETKECPFRVNKTDTKPVQMMNMEATFCMGNIDSINCKIIELPFQNKHLSMFILLPKDVEDESTGLEKIEKQLNSESLSQWTNPSTMANAKVKLSIPKFKVEKMIDPKACLENLGLKHIFSEDTSDFSGMSETKGVALSNVIHKVCLEITEDGGDSIEVPGARILQHKDELNADHPFIYIIRHNKTRNIIFFGKFCSP | – | inhibit mobility of tumor cells | inhibits invasion |
